Target: lamin A R7/8E double mutant (human) (UniProt P02545)
Assay: rotary metal shadowing EM; in vitro assembly assay: after dialysis into 25 mM MES, 150 mM NaCl, 1 mM DTT, 1 mM EGTA pH 6.5, 30% glycerol; dimers scored as singular or incorporated into head-to-tail oligomers

lamin A R7/8E double mutant (from UniProt P02545 1-646) (natural protein)
stoichiometry N: 2
